This note sets out measurements from patent publication US20140128578A1.

The target in assay [1] is antibody in cell-free culture supernatant (Experiment 3). Briefly: affinity precipitation from cell-free culture supernatant; antibody to Z-dimer 1:2, 1 h; precipitate collected on a 0.22 µm filter.
Assay [2] addresses IgG4 contained in cell-free eukaryotic culture supernatant (Experiment 1, test 1). Briefly: affinity precipitation; 0.13 µmol Z-dimer with 0.065 µmol IgG4 in culture supernatant, 2 h; antibody left in supernatant measured by SEC UV signal and protein A chromatography. On the technique in general: Size exclusion chromatography separates by hydrodynamic size, large species first.
Assay [3] concerns the target IgG1 contained in cell-free eukaryotic culture supernatant (Experiment 1, test 2). The assay can be described thus: affinity precipitation; 16.25 nmol Z-dimer with 16.25 nmol IgG1 in culture supernatant, 2 h; antibody left in supernatant measured by SEC UV signal and protein A chromatography.

The substance “Z-dimer (dimerised protein Z; two Z-domain Cys tag monomers linked via a disulphide bridge) (designed binder)” came in with a total yield of the antibody after the precipitation in assay [1] of 98%. Besides, the percent of antibody precipitated in assay [2] was determined as 99%; in assay [3] it was 76%.
